Measurements taken from the supplement of paper PMC10724198.

Assays:
[1] = system: Saccharomyces cerevisiae; assay: protein stability index of tFT-peptide fusion in wild type (PSI (0-1 scale)); higher = more stable (slower turnover); settings: genetic background: wild type
Method: (§1)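 MPS profiling in S. cerevisiae of two library types built from selected 12-aa C-degron peptides (IN1, IN2, LN1, LN3, VN2, R1-R5, W1-W3, Atg1 and Rpa12 C-termini): saturation mutagenesis libraries and C-terminal +1 capping libraries (13 aa). Each peptide is fused to the C-terminus of a sfGFP-mCherry timer, after a GGGS linker. Cells are FACS-sorted into 8 mCherry/sfGFP bins and sequenced. PSI runs from 0 (unstable) to 1 (stable), measured once in wild type and in the das1Δ or doa10Δ background.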

[2] = system: Saccharomyces cerevisiae; assay: protein stability index of tFT-peptide fusion in deletion strain of DAS1 (PSI (0-1 scale)); higher = more stable (slower turnover)
Method: as §1
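Throughout, for protein stability index of tFT-peptide fusion in deletion strain of DAS1: PSI is a weighted mean of each variant's read distribution over the sorted stability bins, computed only for variants having over 10 reads in total.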
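Throughout, for protein stability index of tFT-peptide fusion in wild type: PSI derived as read-weighted mean over the 8 sorting bins, only variants exceeding 10 total reads kept, mCherry placed adjacent to the peptide and sfGFP distal.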

Row | Sequence | protein stability index [1] | protein stability index [2]
1 | ANWRVGLWRGAS | 0.498 | 0.685
2 | ARDRVGLWRGAS | 0.575 | 0.716
3 | ARKRVGLWRGAS | 0.517 | 0.691
4 | ARMRVGLWRGAS | 0.645 | 0.702
5 | ARSRVGLWRGAS | 0.591 | 0.698
6 | ARVRVGLWRGAS | 0.599 | 0.694
7 | ARWDVGLWRGAS | 0.543 | 0.729
8 | ARWRGGLWRGAS | 0.543 | 0.677
9 | ARWRPGLWRGAS | 0.668 | 0.679
10 | ARWRSGLWRGAS | 0.665 | 0.676
11 | ARWRVGLPRGAS | 0.688 | 0.666
12 | ARWRVGLWRGASK | 0.672 | 0.622
13 | ARWRVGLWRGAV | 0.395 | 0.688
14 | ARWRVGLWRGFS | 0.599 | 0.678
15 | ARWRVGLWRGQS | 0.416 | 0.695
16 | ARWRVGLWRGWS | 0.668 | 0.69
17 | ARWRVGLWRLAS | 0.0888 | 0.672
18 | ARWRVGQWRGAS | 0.614 | 0.682
19 | ARWRVNLWRGAS | 0.34 | 0.708
20 | ARWRVRLWRGAS | 0.333 | 0.671
21 | ARWRWGLWRGAS | 0.55 | 0.681
22 | ASMRWTFRYWVN | 0.0684 | 0.602
23 | ATSCGYKFRTNN | 0.235 | 0.671

Row | Sequence | protein stability index [1] | protein stability index [2]
24 | CASCGYKFRTNN | 0.281 | 0.714
25 | CLSCGYKFRTNN | 0.228 | 0.701
26 | CTSCAYKFRTNN | 0.172 | 0.665
27 | CTSCDYKFRTNN | 0.556 | 0.689
28 | CTSCGTKFRTNN | 0.552 | 0.693
29 | CTSCGWKFRTNN | 0.306 | 0.673
30 | CTSCGYGFRTNN | 0.594 | 0.693
31 | CTSCGYKFRANN | 0.538 | 0.698
32 | CTSCGYKFRNNN | 0.681 | 0.703
33 | CTSCGYKFRTFN | 0.335 | 0.712
34 | CTSCGYKFRTNH | 0.191 | 0.68
35 | CTSCGYKFRTNNM | 0.679 | 0.69
36 | CTSCGYKFRTSN | 0.273 | 0.704
37 | CTSCGYKFRTVN | 0.15 | 0.705
38 | CTSCGYKGRTNN | 0.658 | 0.674
39 | CTSCGYKKRTNN | 0.474 | 0.692
40 | CTSCGYKNRTNN | 0.705 | 0.696
41 | CTSCGYKPRTNN | 0.693 | 0.683
42 | CTSCGYRFRTNN | 0.464 | 0.679
43 | CTSCKYKFRTNN | 0.376 | 0.69
44 | CTSCQYKFRTNN | 0.334 | 0.689
45 | CTSHGYKFRTNN | 0.242 | 0.689
46 | CTSIGYKFRTNN | 0.153 | 0.695

Row | Sequence | protein stability index [1] | protein stability index [2]
47 | CTSPGYKFRTNN | 0.254 | 0.686
48 | CTSSGYKFRTNN | 0.413 | 0.634
49 | CTYCGYKFRTNN | 0.269 | 0.705
50 | FGMRWTFRYWVN | 0.0525 | 0.53
51 | FIMRWTFRYWVN | 0.0251 | 0.251
52 | FRWRVGLWRGAS | 0.0957 | 0.668
53 | FSFRWTFRYWVN | 0.089 | 0.54
54 | FSLRWTFRYWVN | 0.0436 | 0.467
55 | FSMHWTFRYWVN | 0.0392 | 0.664
56 | FSMRATFRYWVN | 0.0843 | 0.545
57 | FSMRETFRYWVN | 0.048 | 0.596
58 | FSMRTTFRYWVN | 0.0969 | 0.623
59 | FSMRWFFRYWVN | 0.0657 | 0.602
60 | FSMRWTFKYWVN | 0.0423 | 0.485
61 | FSMRWTFLYWVN | 0.0672 | 0.383
62 | FSMRWTFNYWVN | 0.0909 | 0.719
63 | FSMRWTFRYDVN | 0.524 | 0.572
64 | FSMRWTFRYWAN | 0.101 | 0.537
65 | FSMRWTFRYWKN | 0.634 | 0.524
66 | FSMRWTFRYWPN | 0.525 | 0.528
67 | FSMRWTFRYWVH | 0.094 | 0.439
68 | FSMRWTFRYWVI | 0.147 | 0.461
69 | FSMRWTFRYWVNE | 0.532 | 0.542

Row | Sequence | protein stability index [1] | protein stability index [2]
70 | FSMRWTFRYWVNL | 0.139 | 0.549
71 | FSMRWTFRYWVNW | 0.436 | 0.534
72 | FSMRWTFRYWVV | 0.0991 | 0.526
73 | FSMRWTQRYWVN | 0.117 | 0.545
74 | FSMRWWFRYWVN | 0.0988 | 0.533
75 | FSMTWTFRYWVN | 0.0417 | 0.568
76 | FYMRWTFRYWVN | 0.044 | 0.351
77 | GRWRVGLWRGAS | 0.447 | 0.691
78 | IRGAVGGWRLVG | 0.154 | 0.681
79 | KAHKKGQKQKIN | 0.111 | 0.858
80 | KDKRNHLIKLLN | 0.0684 | 0.723
81 | KEHKKGQKQKIN | 0.127 | 0.634
82 | KHHKKGQKQKIN | 0.101 | 0.581
83 | KKHFKGQKQKIN | 0.0456 | 0.594
84 | KKHIKGQKQKIN | 0.0778 | 0.598
85 | KKHKFGQKQKIN | 0.0916 | 0.578
86 | KKHKKGEKQKIN | 0.082 | 0.658
87 | KKHKKGQEQKIN | 0.109 | 0.543
88 | KKHKKGQKQDIN | 0.795 | 0.601
89 | KKHKKGQKQKIE | 0.567 | 0.585
